In the domain aggregation screens of Martell et al. (2025):

Test: soluble fraction after stress (log2 fold change); higher = more stays soluble; pooled small domains, quantitative proteomics
Conditions: stress: 75 degC
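Also: 20 min heating vs room temperature control held 20 min.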

Row | Sequence | soluble fraction (log2)
1 | HMSNIAQRLVLENALAKLNQEQQTIIDLRIIKGYSVAETARLLGKTESAVRTAQYRALKELAGILEED | -2.07
2 | HMSNIIIYPNPTNDGLIHIKGSKFPFNYALYNLSGKLIETGKKNQIQLNDRGVYLLKIQTEGQTYFKKII | -0.16
3 | HMSNNILEISSNKKNMKIQENKNLVESYYSKTENLYSFKLVFKNKRDLDQFLKEVYEDDSTINYKTSS | -1.27
4 | HMSNPPLPFLAKTKVSWTGEQDGDLGFLENEVVKVFHVVDELWWQGSLSRNGAEGIFPRDFVEVISAP | -2.09
5 | HMSNSWSYSEFMKAVESGQVESVTISGQSIKGTSRGGQAFESVLPAFDDKLMDTLLVNDVEVIGEKP | 0.556
6 | HMSNTGDIIRKLREESGVTAKELAHRIGLSASQMSRLESGKRRINSEVLTRIARALEVAPSQLID | -0.439
7 | HMSNTIFGINGPVVTVASKDFSMQEMVYVGNERLVGEVISIDDDLTTIQVYEVTTGLKPGEPVVGTGSAM | -0.34
8 | HMSNVDYSQFKKDTVVEHTKFGRGIIIQTSGDGEDKIAAIAFKGLGVKRFSLAIAAASLKIIGKNDE | -2.49
9 | HMSNYFIEISKDSLARINDEIELDVLRETSDTIIISQEEKTNTISSFIKVLFERQIDILSIQNR | 0.0911
10 | HMSNYYNILGVNKSSTQDEIKKAFRKKAVEHHPDKGGNEATFKKINEAYNTLSDNNKRHMYDMQQSG | 0.119
11 | HMSPDALSNLPIGSEIKFTLWDGTEKRLVKHPAAYQFSRPFWMNLNEYTYVPVNRIPKNYEVIRL | 0.182
12 | HMSPEVEEISIDHLKAGMRILSDLRLPNGTLVAPKGSVVDAHFIKIVENYVISYFGNPFPDRIKVIM | -1.95
13 | HMSPEWTPAEQDAIDKASEGEYGEALQRVLSGDYEPMDIPDALWGVQQVADKDTYSSIQKKIADIGN | 0.383
14 | HMSPIPLPVERAIHKLGSDISLARRRRHISQASLAERMGASLSTVRRMEKGDVRVPIHFFARALHVFG | 0.123
15 | HMSPIQLKYNEYLIYIDEGKINTAEIHGNKITGKLKEGSEYVVTIYPELIASITEKLAENNVQTQLIQ | -0.0829
16 | HMSPLPDRESLGAIEKLISLLGSSEWTVREKATRELGAFGYLARPVLQRELATSGDPEVSRRLERILSNL | -0.545
17 | HMSPLTPEEAEVLRILGDHGDMTVDNIATEGKMSAAAVLRVLGVLSAYGLAVPSGPGRWGSRAA | -0.462
18 | HMSPPPRPSHPEAAGLRHLAFEVDNIDDAVRHLDRLGVPHEPVRTDEYTGRRFLFFTDPDRLPLELYEK | -0.432
19 | HMSPQIDYFDDEELDVYRQIAPEAYTDEQIEVFRDILYTLRPEEVEEWLISLEKREINLPLILRQEAIELI | 0.481
20 | HMSPRQVTAVRSGSPMPVLPGEDWRLYDASGALVARGSGAAPIPKSTGLLRLNSEGLDGLADRWIWVL | -0.553
21 | HMSPSRRENLTAAAKEYFVNTQIRHKTFGNGVIIKRSGNIAAIRFDNGTIKQIDLIAALQAKVLSIL | -2.71
22 | HMSPSTNKTFSFSKENISIGQTVFIKKLNQNATVLTLPNKSNQLQVQFGVITMNVKLEDLALPTN | -2.62
23 | HMSPTSSRAAQARIRKMIESESPLKPISDSQLAARLGEEGISIARRTVAKYREQMNILPASQRRGV | -0.351
24 | HMSPVPRIEIELTSSKEDGSWTWRAVGAREPRGSLDGALLAKPAAVGDVLRVETDQFLDGMTVTAILPPRD | -0.263
25 | HMSQAVEISSVKTQIDGKSYYLHTIKQGQTLYGISKAYGVSVEELTTVNPETSKGLKVGQIIKVPDTKT | 0.395
26 | HMSQDLVVLGDSMLNNALKAFHIDPNAIKKKYWDKLILDYHLKSKEEVLTEIALGKKINVMVAHQLTSIMD | 0.051
27 | HMSQEILSNQSIKDMIELGFEEQTIIDKIQTSTSDFDTTIEELKALKQLGASPTILSAMIKSIKK | 1.01
28 | HMSQLDITEARIVVSGGLGMQGPENFKLLEELAKVLGGAVGASRPVVDNGWREYSNQVGQTGKIVAPELYV | 0.0901

Row | Sequence | soluble fraction (log2)
29 | HMSQLETEEAKRIVLKDLLRLYNNYNIIELEEDEFDRFITYLNMPYDFLQKTSDYDLAVSIKRMYASY | -2.28
30 | HMSQNISSTKLIPENIKIGMSVFVIPLQQKGIVQSLPNRSKEVLVQIGNAKINVKINNLKLIED | -0.142
31 | HMSQNTHTIPSREDILGIFRSVNAPLDPQSLGKTLQVHADSMDVLVRRLKAMERDGQLKSDASGVFSLAD | 0.185
32 | HMSQNVQDVFLNHVRKSKNPVTVFLVNGVKLQGIITWFDNFSVLLRREGHTQLVYKHAISTVMPSGPIQLF | 0.113
33 | HMSQPALSYAFAKAQGVIVTALGDVAEVARRKGSQPQALAEVRRIAGRPLALREVDDAAFDRLLQDHYARS | -0.646
34 | HMSQQMSYSDFVKAVSARQIREAQIQGDKIYATDSTGNRLTIIRLDNDQRLVDDMINNDVNIIGLEE | 0.177
35 | HMSQSDLASAIGARVTIRLREASGGFRDIVGVLQRFGSGYGELINSKGEALTFSESEIAIWREVKA | -2.5
36 | HMSQTELIIVEEEMDGERLDAFLAEQVEQLSRSAVKNLINEGQVLVNGAKQKASYHVREGDEISIEIPEPQ | 0.836
37 | HMSQTPDLQQERANLGDNADARIEAVDLWANKFFPEEHADAILQIGQTAKGIEALEFIMSKV | -0.0375
38 | HMSQVLVRINQDLNIRSGPGAQYDIIAVYRSGAIASVIGTYNNWYKVNFELDSKSYTGWINGTFTSR | -2.48
39 | HMSQYELEDVEKQRLKFKNGDEKALWLLSDIYKDNSQSYEVRLAALRALSESRHPLIIFDIQSSVK | -0.527
40 | HMSRAAQRLFMSQPPLSRHIRQLEDRLGVTLFVRHTRGLTLTEDGQRVLEMVRPLLDLQDKTYAALSQLT | 0.0487
41 | HMSREMIKSELESISGLGKSGIEKLYTHFINIENIKSASLENIRNIPGISYKVADNIYKHFH | -0.238
42 | HMSRLGINTTIEDIKMVGKIIMPLLKQGQSVYQILASHPEIPYSEKTLYSYIEDNIFKDAGIDISVFDL | -1.32
43 | HMSRLLERARDLMAKPGAWLSAEGGAYALRLSPDRRSRISLTLTETEFRALIDQPGLRVRPGGGWSGRA | -3.05
44 | HMSRMGDSIKSLRSRNNMSQDALAEKLNVTRQAISNWENSKTQPDADTLKNLGIIFNVTVDEIINNDF | 0.0824
45 | HMSRQREWIYDYIQSHPDRHMSVEEIYEGLKAENREVSVATVYRNLKILQDENRIASLMLESGKQVFDK | -0.384
46 | HMSRREEALIALAQRVARQVARTKQPVTLEPMPANERRVIHVALRDNPDVETRSSGEGDQRRVTVYPRQ | -0.228
47 | HMSRRIEIELTSSRPDGSWTWRAAGAREPKGVLDGTLLSQGSKPGDVVKAEAEFDIDGITIVSITQ | -0.405
48 | HMSRSKLNRLDKIKKMLIAQTGISIKEFSASLNVSEITIRRDLNLLEEQGFIRLVNGVAIYRM | -1.75
49 | HMSRSLEIDVLVKALLEQDRRKFMLVTDGTADVTVRYNNALPSLFREGQGVVAEGLMDNGKFIATNVLAK | -0.811
50 | HMSRSLLAALEKLRESHTGSLPASVLSSAQRRSLESFAQTTKSVQMRPSGRGVVFAIINPEVVDKHWRELS | -0.959
51 | HMSRSSQMVNFIRLLSQEKKVSVNSIFSSSVQLSDGIIVKINDFYYRVNLSLDQKTYSLVEVS | -0.483
52 | HMSRVKQERLNRFVEAFEAYFRSVHPGEIDVEYLKSDEFGDIFESILHRVMHTASEEKMHRFKKILLNEM | -2.14
53 | HMSSADIPFSRFIDDVEAQRVEKVTIDGVNVTGRYRSDGAAFKTIIPSQYDGLVPILRQNKVDITVKDA | 0.24
54 | HMSSAMDMISRDVRNADSISISTTTYSKKIDLYNFDRNGDIEELHSYSAKNDLGILYNDEPI | -0.35
55 | HMSSANIKLDPLERQATQQIINNIKRKYPNATIENLQEVANDAIATMRQPEFSNYTVDKFVSYFLSM | -0.519
